Target: Positive controls (Ci-M1; TRPV4-Ci, each with Ce-M1)
Assay: FRET or BRET

Sequence of cerulean-AQP4 M1 (P55088 whole entry): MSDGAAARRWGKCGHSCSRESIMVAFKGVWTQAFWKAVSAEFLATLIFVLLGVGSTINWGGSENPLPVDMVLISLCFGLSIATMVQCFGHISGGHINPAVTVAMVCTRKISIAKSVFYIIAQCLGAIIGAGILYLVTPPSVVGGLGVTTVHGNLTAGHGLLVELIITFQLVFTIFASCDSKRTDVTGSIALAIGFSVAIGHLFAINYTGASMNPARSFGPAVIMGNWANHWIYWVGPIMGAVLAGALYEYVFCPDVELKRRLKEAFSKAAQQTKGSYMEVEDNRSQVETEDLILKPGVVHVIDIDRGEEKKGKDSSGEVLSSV

FRET efficiency: 8 to 10%
Substance: cerulean-AQP4 M1 (from UniProt P55088-1 1-323) (natural protein)
